Here are results for 2 substances from publication PMC4834553.

Test [1] deals with catalase KatA of H. pylori CCUG18943, endogenous (Helicobacter pylori (endogenous in strain CCUG18943)) (UniProt P77872). In words: flow cytometry on cells; whole H. pylori (wt and ΔkatA) incubated with 3 μg human serum Vn per 10^6 cells, 1 h, 37 °C, PBS 1% BSA; sheep anti-human Vn Ab and FITC-conjugated anti-sheep pAb. (In general: In flow cytometry, cells or beads pass a laser one at a time.)

The target of test [2] is catalase KatA of H. pylori KR497, endogenous (Helicobacter pylori (endogenous in strain KR497)) (UniProt P77872). The description is as above.
Test [3] deals with catalase KatA of H. pylori KR697, endogenous (Helicobacter pylori (endogenous in strain KR697)) (UniProt P77872). The description is as above.
Another test deals with Vn^80–396 (human). In words: BLI; Octet RED96; Vn 80–396 immobilised on AR2G sensors by amine coupling at pH 5; KatA as analyte, 1 in 3 dilution series (50–0.055 nM) in PBS, 0.05% Tween20; KD from steady state analysis. (In general: BLI is a label-free optical method that tracks binding on a fibre tip over time.)

Take “human serum vitronectin (Vn), activated, purified from serum (natural protein)”: the reduction of Vn binding to whole bacteria on deletion of katA in test [1] is 21%; in test [2], 50%; in test [3] it was 50%.
With “full length recombinant KatA (from UniProt P77872 1-505)”, in the test with Vn^80–396 (human), the Kd (commonly a measure of binding affinity in units of concentration) was determined as 1 nM, the koff (usually the rate constant with which the complex falls apart) stood at 0.0003 s⁻¹ and the kon (commonly the second-order rate constant of association) turned out to be 1e+06 M⁻¹ s⁻¹.
